T1: MUC1-SEA-His protein (UniProt P15941 1039-1148, limits assumed)
T1 construct: domain: SEA; Recombinant antigen used for ELISA coating and as Biacore analyte; also called MUC-SEA-His; antigen protein; not shown: His tag
T1 sequence (looked up): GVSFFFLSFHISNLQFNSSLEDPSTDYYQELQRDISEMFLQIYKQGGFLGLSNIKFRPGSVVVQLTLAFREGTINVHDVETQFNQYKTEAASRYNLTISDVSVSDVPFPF

B1: VH2 + VL1 (antibody, V domains shown)
VH: QVQLVQSGAEVKKPGASVKVSCKASGYAFSNFWMNWVRQAPGQGLEWMGQIYPGDGDTNYNGKFKGRVTMTRDTSTSTVYMELSSLRSEDTAVYYCARSYYRSAWFAYWGQGTLVTVSS
VL: EIVLTQSPDFQSVTPKEKVTITCRASQSIGTSIHWYQQKPDQSPKLLIKYASESISGVPSRFSGSGSGTDFTLTINSLEAEDAATYYCQQSNNWPLTFGQGTKVEIK
notes: Humanized IgG expressed in HEK293; also called humanized antibody VH2+VL1
B2: VH1 + VL1 (antibody, V domains shown)
VH: B1 VH with A16S, M70I, R72A, T74K, V79A
VL: B1 VL
notes: Humanized IgG expressed in HEK293; also called humanized antibody VH1+VL1
B3: VH4 + VL1 (antibody, V domains shown)
VH: B1 VH with S17T, V20I, A24V, R38Q, Q43K, M70I, R72A, S77D, V79A, S119R
VL: B1 VL
notes: Humanized IgG expressed in HEK293; also called humanized antibody VH4+VL1
B4: VH3 + VL1 (antibody, V domains shown)
VH: B1 VH with T76I, V79A, S85R, E89D
VL: B1 VL
notes: Humanized IgG expressed in HEK293; also called humanized antibody VH3+VL1
B5: VH5 + VL4 (antibody, V domains shown)
VH: EVQLVQSGAEVKKPGESLKISCKGSGYAFSNFWMNWVRQMPGKGLEWMGQIYPGDGDTNYNGKFKGQVTISADKSISTAYLQWSSLKASDTAMYYCARSYYRSAWFAYWGQGTLVTVSL
VL: AIQLTQSPSSLSASVGDRVTITCRASQSIGTSIHWYQQKPGKAPKLLIYYASESISGVPSRFSGSGSGTDFTLTISSLQPEDFATYYCQQSNNWPLTFGGGTKVEIK
notes: Humanized IgG expressed in HEK293; also called humanized antibody VH5+VL4
B6: VH2 + VL4 (antibody, V domains shown)
VH: B1 VH
VL: B5 VL
notes: Humanized IgG expressed in HEK293; also called humanized antibody VH2+VL4
B7: VH1 + VL4 (antibody, V domains shown)
VH: B1 VH with A16S, M70I, R72A, T74K, V79A
VL: B5 VL
notes: Humanized IgG expressed in HEK293; also called humanized antibody VH1+VL4
B8: VH3 + VL4 (antibody, V domains shown)
VH: B1 VH with T76I, V79A, S85R, E89D
VL: B5 VL
notes: Humanized IgG expressed in HEK293; also called humanized antibody VH3+VL4

Residue numbers refer to the chain shown, from its start.

T2 sequence (P15941 24-1255 limits assumed): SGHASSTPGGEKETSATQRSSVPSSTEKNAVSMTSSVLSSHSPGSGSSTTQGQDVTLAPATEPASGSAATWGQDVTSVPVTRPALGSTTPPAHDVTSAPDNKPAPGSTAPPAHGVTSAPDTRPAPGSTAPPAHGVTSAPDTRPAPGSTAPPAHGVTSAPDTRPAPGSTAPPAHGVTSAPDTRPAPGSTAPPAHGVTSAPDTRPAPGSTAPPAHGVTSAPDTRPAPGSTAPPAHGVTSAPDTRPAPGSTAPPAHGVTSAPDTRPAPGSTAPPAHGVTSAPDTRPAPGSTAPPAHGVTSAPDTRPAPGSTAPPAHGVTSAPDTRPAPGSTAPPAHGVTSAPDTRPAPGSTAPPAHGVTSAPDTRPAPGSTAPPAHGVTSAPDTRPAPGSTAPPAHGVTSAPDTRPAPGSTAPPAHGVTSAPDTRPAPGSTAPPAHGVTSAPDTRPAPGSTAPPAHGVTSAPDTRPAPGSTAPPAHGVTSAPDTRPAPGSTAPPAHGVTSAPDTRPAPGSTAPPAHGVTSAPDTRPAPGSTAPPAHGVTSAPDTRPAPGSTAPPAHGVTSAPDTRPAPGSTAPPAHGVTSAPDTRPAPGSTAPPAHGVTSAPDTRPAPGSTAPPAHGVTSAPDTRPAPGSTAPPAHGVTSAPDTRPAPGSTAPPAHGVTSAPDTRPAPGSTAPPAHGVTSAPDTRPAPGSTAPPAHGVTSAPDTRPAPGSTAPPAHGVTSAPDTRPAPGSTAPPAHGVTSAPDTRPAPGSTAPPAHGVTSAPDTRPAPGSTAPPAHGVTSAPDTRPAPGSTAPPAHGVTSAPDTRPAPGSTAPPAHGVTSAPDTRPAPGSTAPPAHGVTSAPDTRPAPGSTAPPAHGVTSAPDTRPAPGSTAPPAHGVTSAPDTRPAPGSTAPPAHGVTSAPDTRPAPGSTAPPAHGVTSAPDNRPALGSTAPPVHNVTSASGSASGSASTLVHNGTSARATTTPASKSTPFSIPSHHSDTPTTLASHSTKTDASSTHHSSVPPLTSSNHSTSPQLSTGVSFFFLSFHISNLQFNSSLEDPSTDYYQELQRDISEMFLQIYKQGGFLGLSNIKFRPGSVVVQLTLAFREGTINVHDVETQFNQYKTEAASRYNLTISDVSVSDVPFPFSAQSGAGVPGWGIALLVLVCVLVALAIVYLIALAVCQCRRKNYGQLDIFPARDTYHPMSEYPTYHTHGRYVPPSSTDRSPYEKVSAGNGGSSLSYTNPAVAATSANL

One experiment addresses T2, MUC1 on HCT116/MUC1 cells (UniProt P15941 24-1255, limits assumed).
T2 construct: whole, on cells; also called MUC1 overexpressed cell line
The experiment in a line: FACS titration on HCT116/MUC1 cells. The method, then:
(§1) To assess cell binding, 2×10⁵ HCT116/MUC1 cells per well were washed with PBS twice and incubated in 200 μl of serial dilutions of chimeric or humanized antibodies for 1 hour at room temperature. After washing 3 times with PBS, secondary antibody (2 μg/ml Alexa Flour®488 goat anti-human IgG) was added to cells and incubated for 30 minutes at room temperature. After washing with PBS, cells were analyzed by using FACSCalibur (BD Bioscience, San Jose, Calif.) and Flowjo software.
With B1, a half-maximal effect (EC50) was put at 58.6 nM.
With B2, the EC50 – broadly, the concentration giving half of the maximal effect – worked out at 30.3 nM.
The same measure, in the same setting: the result for B3 reads 36.6 nM.
As to B4, the midpoint of the response, the EC50, lay at 28.7 nM. This EC50 and that of the molecule before are within 1.5-fold of each other.
In the case of B5, the midpoint of the response, the EC50, lay at 20.6 nM.
For the molecule B6, the EC50 amounted to 41.3 nM. This EC50 is about 2-fold higher than that of the molecule before.
The same measure, in the same setting: as for B7, the figure is 31.9 nM; as for B8, 33.1 nM.

Another experiment deals with T2, MUC1 on HCT116/MUC1 cells. The experiment in a line: FACS titration, HCT116/MUC1 cells, antibody at 125 nM. As to the method: as §1
B1 gave a geometric mean of 306.
Regarding B2, the geometric mean was found to be 332.
The same measure, in the same setting: as for B3, the figure is 225; as for B4, 305.
Still for that read-out and setting: the result for B5 reads 202; that for B6, 188; that for B7, 132.
As to B8, the geometric mean stood at 208.

A further experiment deals with T2, MUC1 on HCT116/MUC1 cells. Nature of the experiment: FACS titration, HCT116/MUC1 cells, antibody at 250 nM. As to the method: as §1
The molecule B1 gave a geometric mean of 337.
Still for that read-out and setting: as for B2, the figure is 363; as for B3, 250.
The same measure, in the same setting: as for B4, the figure is 321; as for B5, 193.
On the same count and under the same terms, the result for B6 reads 216; that for B7, 142; that for B8, 227.

The target in the next experiment is T2, MUC1 on HCT116/MUC1 cells. The experiment in a line: FACS titration, HCT116/MUC1 cells, antibody at 500 nM. As to the method:
as §1
In the case of B1, the geometric mean is 342.
For B2, the geometric mean is 351.
On to B3, for which the geometric mean was 253.
With B4, the geometric mean stood at 334.
Take B5: the geometric mean is 199.
B6 had a geometric mean of 212.
On the same count and under the same terms, as for B7, the figure is 141; as for B8, 235.

Another experiment deals with T2, MUC1 on HCT116/MUC1 cells. Nature of the experiment: FACS titration, HCT116/MUC1 cells, antibody at 62.5 nM. The method, then:
as §1
Molecule B1 showed a geometric mean of 265.
Still for that read-out and setting: as for B2, the figure is 290.
The same measure, in the same setting: as for B3, the figure is 188; as for B4, 263.
B5: the geometric mean was found to be 190.
On the same count and under the same terms, the result for B6 reads 161; that for B7, 111.
On the same count and under the same terms, as for B8, the figure is 171.

For another experiment, the target named is T1, MUC1-SEA-His protein. Nature of the experiment: SPR Biacore T200, antibody captured, antigen as analyte. As to the method: Antibody affinity was determined using a Surface Plasmon Resonance (SPR) biosensor, Biacore T200 (GE Healthcare). Antibody was immobilized on the sensor chip through Fc capture method. Antigen protein was used as the analyte. The data of dissociation (kd) and association (ka) rate constants were obtained using Biacore T200 evaluation software. The apparent equilibrium dissociation constants (KD) were calculated from the ratio of kd over ka. For affinity ranking, twenty-five humanized antibodies plus chimericantibody were injected and captured on sensor chip individually. The antibodies were ranked based on their dissociation rates (kd).
B1: the koff (as a rule, the first-order rate constant of dissociation) was found to be 0.00133 s⁻¹.
B2 had a koff of 0.0021 s⁻¹.
Still for that read-out and setting: the result for B3 reads 0.00261 s⁻¹.
Take B4: the koff turned out to be 0.0015 s⁻¹.
Still for that read-out and setting: the result for B5 reads 0.0179 s⁻¹; that for B6, 0.00741 s⁻¹.
B7 came in with a koff of 0.0124 s⁻¹.
With B8, the koff stood at 0.00902 s⁻¹.

The target in the next experiment is T2, MUC1 on HCT116/MUC1 cells. Nature of the experiment: FACS titration, HCT116/MUC1 cells, antibody at 0.244 nM. As to the method: as §1
B1: the geometric mean is 3.
The same measure, in the same setting: as for B2, the figure is 2.72; as for B3, 2.54.
In turn, B4 displayed a geometric mean of 3.1.
On to B5, for which the geometric mean is 2.84.
The molecule B6 returned a geometric mean of 2.88.
For B7, the geometric mean was found to be 2.82.
B8: the geometric mean worked out at 9.23.

A further experiment has as its target T2, MUC1 on HCT116/MUC1 cells. Nature of the experiment: FACS titration, HCT116/MUC1 cells, antibody at 0.488 nM. The method, then:
as §1
As to B1, the geometric mean was determined as 3.27.
Molecule B2 returned a geometric mean of 3.
For B3, the geometric mean was 2.54.
Regarding B4, the geometric mean is 3.81.
B5 returned a geometric mean of 3.52.
The same measure, in the same setting: as for B6, the figure is 3.16; as for B7, 2.85; as for B8, 19.5.

Another experiment has as its target T2, MUC1 on HCT116/MUC1 cells. Nature of the experiment: FACS titration, HCT116/MUC1 cells, antibody at 0.977 nM. As to the method:
as §1
With B1, the geometric mean worked out at 3.68.
The same measure, in the same setting: the result for B2 reads 3.17.
Take B3: the geometric mean came to 2.51.
As for B4, the geometric mean was 6.94.
B5 returned a geometric mean of 4.01.
Regarding B6, the geometric mean stood at 3.76.
Still for that read-out and setting: the result for B7 reads 2.86; that for B8, 25.6.

Another experiment has as its target T2, MUC1 on HCT116/MUC1 cells. The experiment in a line: FACS titration, HCT116/MUC1 cells, antibody at 1.953 nM. The method, then: as §1
Take B1: the geometric mean was 4.38.
B2 showed a geometric mean of 5.68.
B3: the geometric mean amounted to 2.94.
The same measure, in the same setting: the result for B4 reads 11.4.
The same measure, in the same setting: the result for B5 reads 5.71; that for B6, 5.22; that for B7, 3.16.
Still for that read-out and setting: as for B8, the figure is 19.

For a further experiment, the target named is T2, MUC1 on HCT116/MUC1 cells. Nature of the experiment: FACS titration, HCT116/MUC1 cells, antibody at 3.906 nM. As to the method: as §1
For the molecule B1, the geometric mean was 5.23.
Turning to B2, the geometric mean stood at 9.54.
Still for that read-out and setting: the result for B3 reads 4.22.
B4 came in with a geometric mean of 16.3.
Take B5: the geometric mean is 15.3.
The same measure, in the same setting: as for B6, the figure is 9.37; as for B7, 4.1.
The same measure, in the same setting: the result for B8 reads 12.

For a further experiment, the target named is T2, MUC1 on HCT116/MUC1 cells. Nature of the experiment: FACS titration, HCT116/MUC1 cells, antibody at 31.25 nM. The method, then: as §1
As to B1, the geometric mean stood at 126.
Turning to B2, the geometric mean worked out at 185.
The same measure, in the same setting: the result for B3 reads 113; that for B4, 192.
Consider B5, for which the geometric mean is 152.
B6 showed a geometric mean of 74.6.
On the same count and under the same terms, as for B7, the figure is 73.3; as for B8, 130.

Another experiment deals with T2, MUC1 on HCT116/MUC1 cells. Nature of the experiment: FACS titration, HCT116/MUC1 cells, antibody at 7.812 nM. The method, then:
as §1
In turn, B1 displayed a geometric mean of 6.37.
On the same count and under the same terms, as for B2, the figure is 23.1; as for B3, 8.87; as for B4, 36.
The same measure, in the same setting: as for B5, the figure is 28.6.
Still for that read-out and setting: as for B6, the figure is 19; as for B7, 6.83.
B8 displayed a geometric mean of 22.2.

The next experiment deals with T2, MUC1 on HCT116/MUC1 cells. The experiment in a line: FACS titration, HCT116/MUC1 cells, antibody at 15.625 nM. As to the method:
as §1
Molecule B1 came in with a geometric mean of 29.
B2 displayed a geometric mean of 68.7.
On the same count and under the same terms, the result for B3 reads 27; that for B4, 71.3.
Still for that read-out and setting: as for B5, the figure is 67.1; as for B6, 28.4; as for B7, 27.7.
Still for that read-out and setting: as for B8, the figure is 54.6.

These data come from patent US20180036441A1 (Dana-Farber, published 2018).
